Target: HIV-1 RT (HIV-1, UniProt P03366;P03366 600-1159;600-1039)
Test: off-rate (dissociation with trap); dissociates much more slowly than from dsDNA N1
Conditions: protein: recombinant; copies: 1;1; label: 5'-32P on the 33 nt DNA primer; 33 nt DNA primer on 50 nt RNA template; template 5' overhang 15 nt, 3' overhang 2 nt

B1: D33-R50 RNA/DNA hybrid primer-template (DNA:RNA)
DNA: TCCCCGGGTACCGAGCTCGAATTCGCCCTATAG
RNA: UUGUAAUACGACUCACUAUAGGGCGAAUUCGAGCUCGGUACCCGGGGAUC
- binding result: binds

From paper PMC8402755
